From paper PMC6738421, “Beta-amyloid induces apoptosis of neuronal cells by inhibition of the Arg/N-end rule pathway proteolytic activity” (Aging (Albany NY), 2019) come the findings set out here.

The target of this assay is T1, Beta-amyloid peptide Aβ42.
T1 construct: beta-amyloid peptide 1-42, a stretch of the amyloid precursor protein; free N-terminus [H2N] and C-terminus [COOH] as printed; Monomerised with HFIP and dissolved in DMSO; for the ITC kinetics treated with 10% NH4OH, lyophilised and resuspended in reaction buffer; source: synthetic peptide, bought: Biopeptide
The experiment in a line: ELISA; sandwich ELISA: Aβ42 (1 μM) captured on immobilised anti-Aβ1-17 antibody, Ate1 added for 90 min at 37°C (30 mM KCl, 5 mM MgCl2, 15 μM Arg, 1 mM ATP, 50 mM Hepes pH 7.5), read by loss of the anti-Aβ36-42 detection antibody signal (OD450); without tRNA. Conditions: both partners purified. Background: An ELISA detects its analyte on a solid surface through an enzyme-linked reagent.

B1: Arginyl-tRNA-protein transferase Ate1, isoform Ate1-3 (enzyme, mouse, UniProt Q9Z2A5-3 1-509, looked up)
chain: MASVVEYKGLKAGYYCGYCESREGKTSCGMWAHSMTVQDYQDLIDRGWRRSGKYVYKPVMDQTCCPQYTIRCHPLQFQPSKSHKKVLKKMLKFLAKGEISKGNCEDEPMDSTVEDAVDGDFALINKLDIKCDLKTLSDLKGSIESEEKEKEKSIKKEGSKEFIHPQSIEEKLGSGEPSHPIKVHIGPKPGKGADLSKPPCRKAREMRKERQRLKRMQQASAAASEAQGQPVCLLPKAKSNQPKSLEDLIFQSLPENASHKLEVRVVRSSPPSPQFRATFQESYQVYKRYQMVVHKDPPDKPTVSQFTRFLCSSPLEAEHPADGPECGYGSFHQQYWLDGKIIAVGVLDILPYCVSSVYLYYDPDYSFLSLGVYSALREIAFTRQLHEKTSQLSYYYMGFYIHSCPKMRYKGQYRPSDLLCPETYVWVPIEQCLPSLDNSKYCRFNQDPEAEDEGRSKELDRLRVFHRRSAMPYGVYKNHQEDPSEEAGVLEYANLVGQKCSERMLLFRH
notes: untagged after cleavage; also called R-transferase Ate1; arginyltransferase Ate1; source: E. coli Rosetta(DE3)pLysS, purified (Ni-NTA, Ub moiety cleaved with Usp2-cc, second Ni-NTA)
For the molecule B1, the binding result is on record as “binds”.

B2: Arginyl-tRNA-protein transferase Ate1, isoform Ate1-1 (enzyme, mouse, UniProt Q9Z2A5-1 1-516, looked up)
chain: MASWSAPSPSLVEYFEGQTSFQCGYCKNKLGSRSYGMWAHSMTVQDYQDLIDRGWRRSGKYVYKPVMDQTCCPQYTIRCHPLQFQPSKSHKKVLKKMLKFLAKGEISKGNCEDEPMDSTVEDAVDGDFALINKLDIKCDLKTLSDLKGSIESEEKEKEKSIKKEGSKEFIHPQSIEEKLGSGEPSHPIKVHIGPKPGKGADLSKPPCRKAREMRKERQRLKRMQQASAAASEAQGQPVCLLPKAKSNQPKSLEDLIFQSLPENASHKLEVRVVRSSPPSPQFRATFQESYQVYKRYQMVVHKDPPDKPTVSQFTRFLCSSPLEAEHPADGPECGYGSFHQQYWLDGKIIAVGVLDILPYCVSSVYLYYDPDYSFLSLGVYSALREIAFTRQLHEKTSQLSYYYMGFYIHSCPKMRYKGQYRPSDLLCPETYVWVPIEQCLPSLDNSKYCRFNQDPEAEDEGRSKELDRLRVFHRRSAMPYGVYKNHQEDPSEEAGVLEYANLVGQKCSERMLLFRH
notes: mouse arginyl-tRNA-protein transferase Ate1, isoform Ate1-1; untagged after cleavage; also called R-transferase Ate1; arginyltransferase Ate1; source: E. coli Rosetta(DE3)pLysS, purified (Ni-NTA, Ub moiety cleaved with Usp2-cc, second Ni-NTA)
As for B2, the binding result was “binds”.
